# The supplement of paper PMC7877785
# ± gives the uncertainty stated by the source.
# Assay: self-splicing fitness, log relative to wild type (ln ratio); higher = more splicing; Tetrahymena group I intron in knt gene, E. coli kanamycin selection, DiMSum; sequences stand for … in CUCUCU…GGAGGGAAAAGUUAUCAGGCAUGCACCUGGUAGCUAGUCUUUAAACCAAUAGAUUGCAUCGGUUUAAAAGGCAAGACCGUCAAAUUGCGGGAAAGGGGUCAACAGCCGUUCAGUACCAAGUCUCAGGGGAAACUUUGAGAUGGCCUUGCAAAGGGUAUGGUAAUAAGCUGACGGACAUGGUCCUAACCACGCAGCCAAGUCCUAAGUCAACAGAUCUUCUGUUGAUAUGGAUGCAGUUCACAGACUAAAUGUCGGUCGGGGAAGAUGUAUUCUUCUCAUAAGAUAUAGUCGGACCUCUCCUUAAUGGGAGCUAGCGGAUGAAGUGAUGCAACACUGGAGCCGCUGGGAACUAAUUUGUAUGCGAAAGUAUAUUGAUUAGUUUUGGAGUACUCGUGGUCG
# Summary of the method: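 DiMSum derived fitness as the error-weighted combination of fold changes across replicates, kanamycin versus no kanamycin, normalised to wild type. E. coli BL21(DE3) held the library, which randomised all eight P1ex-region intron nucleotides within the knt kanamycin-resistance gene on pET-22b(+). Six replicate transformations grew overnight at 37°C or 30°C on LB agar with or without 25 μg/mL kanamycin, also containing 100 μg/mL carbenicillin, 50 μM IPTG and 0.2% rhamnose, and pooled colonies were amplicon-sequenced on an Illumina HiSeq 2500.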
Sequence,self-splicing fitness (ln) (30 °C),self-splicing fitness (ln) (37 °C)
CCAUAGCAAUAUUACGCGCA,-2.65 ± 0.27,-2 ± 0.34
CCAUAGCAAUAUUACGCGGA,-2.87 ± 0.16,-2.26 ± 0.17
CCAUAGCAAUAUUACGCUGA,-3.52 ± 0.41,-1.99 ± 0.28
CCAUAGCAAUAUUACGCUUA,-2.56 ± 0.26,-3.5 ± 0.33
CCAUAGCAAUAUUACGCUUG,-2.3 ± 0.093,-1.35 ± 0.091
CCAUAGCAAUAUUACGGUCA,-3 ± 0.16,-1.44 ± 0.2
CCAUAGCAAUAUUACGGUCC,-2.72 ± 0.26,-1.99 ± 0.42
CCAUAGCAAUAUUACGUCUA,-4.41 ± 0.34,-2.47 ± 0.18
CCAUAGCAAUAUUACGUGCU,-3.88 ± 0.17,-2.1 ± 0.15
CCAUAGCAAUAUUACGUUCU,-3.64 ± 0.25,-3.4 ± 0.32
CCCAAGCAAUAUUACGAAGC,-3.21 ± 0.2,-2.7 ± 0.24
CCCAAGCAAUAUUACGAAUA,-3.15 ± 0.27,-2.68 ± 0.25
CCCAAGCAAUAUUACGACGU,-2.11 ± 0.13,-2.43 ± 0.2
CCCAAGCAAUAUUACGACUU,-4.21 ± 0.2,-2.9 ± 0.17
CCCAAGCAAUAUUACGAUUU,-2.62 ± 0.13,-2.21 ± 0.17
CCCAAGCAAUAUUACGCAGC,-3.93 ± 0.29,-3.49 ± 0.34
CCCAAGCAAUAUUACGCCAC,-2.48 ± 0.25,-1.49 ± 0.22
CCCAAGCAAUAUUACGGACG,-2.8 ± 0.13,-2.17 ± 0.11
CCCAAGCAAUAUUACGGAGC,-3.64 ± 0.18,-2.21 ± 0.17
CCCAAGCAAUAUUACGGAUA,-2.84 ± 0.22,-2.17 ± 0.21
CCCAAGCAAUAUUACGGAUC,-4.28 ± 0.23,-2.45 ± 0.15
CCCAAGCAAUAUUACGGAUU,-2.56 ± 0.12,-2.71 ± 0.16
CCCAAGCAAUAUUACGGCGA,-3.88 ± 0.2,-1.69 ± 0.17
CCCAAGCAAUAUUACGGGGG,-3.6 ± 0.13,-3 ± 0.19

Sequence,self-splicing fitness (ln) (30 °C),self-splicing fitness (ln) (37 °C)
CCCAAGCAAUAUUACGGUUU,-3.72 ± 0.12,-2.92 ± 0.11
CCCAAGCAAUAUUACGUAUU,-3.8 ± 0.16,-2.7 ± 0.17
CCCAAGCAAUAUUACGUCGU,-4.05 ± 0.2,-2.31 ± 0.15
CCCAAGCAAUAUUACGUGAG,-2.48 ± 0.09,-0.85 ± 0.08
CCCAAGCAAUAUUACGUGGU,-3.27 ± 0.087,-1.86 ± 0.084
CCCAAGCAAUAUUACGUUGC,-3.18 ± 0.25,-2.16 ± 0.21
CCCCAGCAAUAUUACGACCG,-4.12 ± 0.26,-1.76 ± 0.34
CCCCAGCAAUAUUACGACGC,-3.17 ± 0.25,-3.22 ± 0.35
CCCCAGCAAUAUUACGACUU,-3.29 ± 0.13,-3 ± 0.22
CCCCAGCAAUAUUACGAGAC,-3.9 ± 0.18,-2.37 ± 0.21
CCCCAGCAAUAUUACGAGAG,-3.91 ± 0.23,-2.05 ± 0.17
CCCCAGCAAUAUUACGAGAU,-3.78 ± 0.17,-2.3 ± 0.2
CCCCAGCAAUAUUACGAGCG,-4.16 ± 0.24,-2.62 ± 0.23
CCCCAGCAAUAUUACGAUAU,-3.52 ± 0.2,-1.58 ± 0.21
CCCCAGCAAUAUUACGAUUA,-3.4 ± 0.2,-2.87 ± 0.22
CCCCAGCAAUAUUACGCACG,-2.64 ± 0.11,-2.2 ± 0.17
CCCCAGCAAUAUUACGCGCC,-3.19 ± 0.19,-3.17 ± 0.47
CCCCAGCAAUAUUACGCGCU,-3.31 ± 0.12,-2.45 ± 0.21
CCCCAGCAAUAUUACGCGGG,-4.19 ± 0.18,-3.1 ± 0.23
CCCCAGCAAUAUUACGCUAA,-3.55 ± 0.18,-3.2 ± 0.21
CCCCAGCAAUAUUACGCUGA,-3.97 ± 0.2,-2.42 ± 0.17
CCCCAGCAAUAUUACGGAAA,-4.13 ± 0.34,-1.64 ± 0.16
CCCCAGCAAUAUUACGGAGC,-3.08 ± 0.15,-2.83 ± 0.23
